Drawing on PMC11257983 (2024), this text covers ratio to parent for five variants.

B1: Flag-CNK^2–549 [Drosophila] / Myc-MEK [Drosophila] (parent)
chain 1: MSKNKLNLVLPPVNTEATVAAATVAPTPPFKTPSGTDTHSLLGKPKTSIDALTETLEGLDMGDTERKRIKMFLSQKEKIGELSDEDLEKLGELGSGNGGVVMKVRHTHTHLIMARKLIHLEVKPAIKKQILRELKVLHECNFPHIVGFYGAFYSDGEISICMEYMDGGSLDLILKRAGRIPESILGRITLAVLKGLSYLRDNHAIIHRDVKPSNILVNSSGEIKICDFGVSGQLIDSMANSFVGTRSYMSPERLQGTHYSVQSDIWSLGLSLVEMAIGMYPIPPPNTATLESIFADNAEESGQPTDEPRAMAIFELLDYIVNEPPPKLEHKIFSTEFKDFVDICLKKQPDERADLKTLLSHPWIRKAELEEVDISGWVCKTMDLPPSTPKRNTSPN
chain 2: AYINIAEWTPDQVTDWIKGLDESMKGYLYEFSKQEIGGRALLNIRPYELENLGMLRIGHQEIVLEAVENLRNFHYHLKNDNLQFMALHVATAAKNLHRELARNHAESTKIDTRILHDITRTIATLKPLVGSLERTPFRKQEMYREYCGNVLKCGLELATIAHRDRFALQPVPAIRQSAERLENLANFVIQDISDPMVLQPASLNLVTLKKRESELGFNIESSYNGIHRVTDIKYNSPAHNSGKIEDGDEIVQINYQTVVGWQHRTVLEHLREALPDVVLTVKKRPKHTKMFGQIYMQPYRLPSKKRNMAARWAAQMPSPRAAFLTLDTEQLATGGTGSAVPDPSKSLSSEKREVLTKANPVSSASDSDSSCSDIPTPTDPKLAAREIRLYYPKPRALLQRRNTICGCEYLSLKNSDLVVPSWHERKPGIGSPTNCDPGSPSIRDKSISFGYGLEMAARPTTCIGIAGDTSTDKARRMFHEARKLKQLTEDSQREFLVDRYKPGVSKVVRFDAKEDYVMKNEKFICNVENTILETFEPIPFADEGDEDA

In the first assay the parent is B1. The assay is described as follows: GST pull-down, immunoblot quantification. The conditions noted are these: with Myc-MEK [Drosophila], S2 cells, Flag-CNK2–549, V5-KSR, GST-HYP co-expressed, captured via GST-HYP, anti-Myc (MEK) blot, parent: 1. A general note: In western blotting, separated proteins are transferred to a membrane and probed.
Take chain 2 AYINIAEWTPDQVTDWIKGLDESMKGYLYEFSKQEIGGRALLNIRPYELENLGMLRIGHQEIVLEAVENLRNFHYHLKNDNLQFMALHVATAAKNLHEELARNHAESTKIDTRILHDITRTIATLKPLVGSLERTPFRKQEMYREYCGNVLKCGLELATIAHRDRFALQPVPAIRQSAERLENLANFVIQDISDPMVLQPASLNLVTLKKRESELGFNIESSYNGIHRVTDIKYNSPAHNSGKIEDGDEIVQINYQTVVGWQHRTVLEHLREALPDVVLTVKKRPKHTKMFGQIYMQPYRLPSKKRNMAARWAAQMPSPRAAFLTLDTEQLATGGTGSAVPDPSKSLSSEKREVLTKANPVSSASDSDSSCSDIPTPTDPKLAAREIRLYYPKPRALLQRRNTICGCEYLSLKNSDLVVPSWHERKPGIGSPTNCDPGSPSIRDKSISFGYGLEMAARPTTCIGIAGDTSTDKARRMFHEARKLKQLTEDSQREFLVDRYKPGVSKVVRFDAKEDYVMKNEKFICNVENTILETFEPIPFADEGDEDA [chain 2 R98E]: the ratio to parent was 1.12. The same measure, in the same setting: as for chain 2 AYINIAEWTPDQVTDWIKGLDESMKGYLYEFSKQEIGGRALLNIRPYELENLGMLRIGHQEIVLEAVENLRNFHYHLKNDELQFMALHVATAAKNLHRELARNHAESTKIDTRILHDITRTIATLKPLVGSLERTPFRKQEMYREYCGNVLKCGLELATIAHRDRFALQPVPAIRQSAERLENLANFVIQDISDPMVLQPASLNLVTLKKRESELGFNIESSYNGIHRVTDIKYNSPAHNSGKIEDGDEIVQINYQTVVGWQHRTVLEHLREALPDVVLTVKKRPKHTKMFGQIYMQPYRLPSKKRNMAARWAAQMPSPRAAFLTLDTEQLATGGTGSAVPDPSKSLSSEKREVLTKANPVSSASDSDSSCSDIPTPTDPKLAAREIRLYYPKPRALLQRRNTICGCEYLSLKNSDLVVPSWHERKPGIGSPTNCDPGSPSIRDKSISFGYGLEMAARPTTCIGIAGDTSTDKARRMFHEARKLKQLTEDSQREFLVDRYKPGVSKVVRFDAKEDYVMKNEKFICNVENTILETFEPIPFADEGDEDA [chain 2 N81E], the figure is 0.27. Same read-out and setting: as for chain 2 AYINIAEWTPDQVTDWIKGLDESMKGYLYEFSKQEIGGRALLNIRPYELENLGMLRIGHQEIVLEAVENLRNFHYHLKNDWLQFMALHVATAAKNLHRELARNHAESTKIDTRILHDITRTIATLKPLVGSLERTPFRKQEMYREYCGNVLKCGLELATIAHRDRFALQPVPAIRQSAERLENLANFVIQDISDPMVLQPASLNLVTLKKRESELGFNIESSYNGIHRVTDIKYNSPAHNSGKIEDGDEIVQINYQTVVGWQHRTVLEHLREALPDVVLTVKKRPKHTKMFGQIYMQPYRLPSKKRNMAARWAAQMPSPRAAFLTLDTEQLATGGTGSAVPDPSKSLSSEKREVLTKANPVSSASDSDSSCSDIPTPTDPKLAAREIRLYYPKPRALLQRRNTICGCEYLSLKNSDLVVPSWHERKPGIGSPTNCDPGSPSIRDKSISFGYGLEMAARPTTCIGIAGDTSTDKARRMFHEARKLKQLTEDSQREFLVDRYKPGVSKVVRFDAKEDYVMKNEKFICNVENTILETFEPIPFADEGDEDA [chain 2 N81W], the figure is 0.05.

The assay is the same for the next values; noted with them: with Myc-MEK [Drosophila]; S2 cells; GST-HYP + RRKM (Ha-RASV12, Pyo-RAF, V5-KSR, Myc-MEK) co-expressed; captured via GST-HYP; anti-MEK blot; parent: 1.
chain 2 AYINIAEWTPDQVTDWIKGLDESMKGYLYEFSKQEIGGRALLNIRPYELENLGMLRIGHQEIVLEAVENLRNFHYHLKNDNLQFMALHVATAAKNLHRELARNHAESTKIDTRILHDITRTIATLKPLVGSLERTPFRKQEMYREYCGNVLKCGLELATIAHRDRFALQPVPAIRQSAERLENLANFVIQDISKPMVLQPASLNLVTLKKRESELGFNIESSYNGIHRVTDIKYNSPAHNSGKIEDGDEIVQINYQTVVGWQHRTVLEHLREALPDVVLTVKKRPKHTKMFGQIYMQPYRLPSKKRNMAARWAAQMPSPRAAFLTLDTEQLATGGTGSAVPDPSKSLSSEKREVLTKANPVSSASDSDSSCSDIPTPTDPKLAAREIRLYYPKPRALLQRRNTICGCEYLSLKNSDLVVPSWHERKPGIGSPTNCDPGSPSIRDKSISFGYGLEMAARPTTCIGIAGDTSTDKARRMFHEARKLKQLTEDSQREFLVDRYKPGVSKVVRFDAKEDYVMKNEKFICNVENTILETFEPIPFADEGDEDA [chain 2 D194K]: the ratio to parent came to 0.05. Still for that read-out and setting: as for chain 2 AYINIAEWTPDQVTDWIKGLDESMKGYLYEFSKQEIGGRALLNIRPYELENLGMLRIGHQEIVLEAVENLRNFHYHLKNDNLQFMALHVATAAKNLHRELARNHAESTKIDTRILHDITRTIATLKPLVGSLERTPFRKQEMYREYCGNVLKCGLELATIAHRDRFALQPVPAIRQSAERLENLANFVIQDISDPEVLQPASLNLVTLKKRESELGFNIESSYNGIHRVTDIKYNSPAHNSGKIEDGDEIVQINYQTVVGWQHRTVLEHLREALPDVVLTVKKRPKHTKMFGQIYMQPYRLPSKKRNMAARWAAQMPSPRAAFLTLDTEQLATGGTGSAVPDPSKSLSSEKREVLTKANPVSSASDSDSSCSDIPTPTDPKLAAREIRLYYPKPRALLQRRNTICGCEYLSLKNSDLVVPSWHERKPGIGSPTNCDPGSPSIRDKSISFGYGLEMAARPTTCIGIAGDTSTDKARRMFHEARKLKQLTEDSQREFLVDRYKPGVSKVVRFDAKEDYVMKNEKFICNVENTILETFEPIPFADEGDEDA [chain 2 M196E], the figure is 0.28.

The same assay, now with this note: with Myc-MEK [Drosophila]; S2 cells; GST-HYP, V5-KSR, Myc-MEK co-expressed; captured via GST-HYP; anti-MEK blot; parent: 1.
Take chain 2 AYINIAEWTPDQVTDWIKGLDESMKGYLYEFSKQEIGGRALLNIRPYELENLGMLRIGHQEIVLEAVENLRNFHYHLKNDNLQFMALHVATAAKNLHRELARNHAESTKIDTRILHDITRTIATLKPLVGSLERTPFRKQEMYREYCGNVLKCGLELATIAHRDRFALQPVPAIRQSAERLENLANFVIQDISKPMVLQPASLNLVTLKKRESELGFNIESSYNGIHRVTDIKYNSPAHNSGKIEDGDEIVQINYQTVVGWQHRTVLEHLREALPDVVLTVKKRPKHTKMFGQIYMQPYRLPSKKRNMAARWAAQMPSPRAAFLTLDTEQLATGGTGSAVPDPSKSLSSEKREVLTKANPVSSASDSDSSCSDIPTPTDPKLAAREIRLYYPKPRALLQRRNTICGCEYLSLKNSDLVVPSWHERKPGIGSPTNCDPGSPSIRDKSISFGYGLEMAARPTTCIGIAGDTSTDKARRMFHEARKLKQLTEDSQREFLVDRYKPGVSKVVRFDAKEDYVMKNEKFICNVENTILETFEPIPFADEGDEDA [chain 2 D194K]: the ratio to parent was 0.05. Turning to chain 2 AYINIAEWTPDQVTDWIKGLDESMKGYLYEFSKQEIGGRALLNIRPYELENLGMLRIGHQEIVLEAVENLRNFHYHLKNDNLQFMALHVATAAKNLHRELARNHAESTKIDTRILHDITRTIATLKPLVGSLERTPFRKQEMYREYCGNVLKCGLELATIAHRDRFALQPVPAIRQSAERLENLANFVIQDISDPEVLQPASLNLVTLKKRESELGFNIESSYNGIHRVTDIKYNSPAHNSGKIEDGDEIVQINYQTVVGWQHRTVLEHLREALPDVVLTVKKRPKHTKMFGQIYMQPYRLPSKKRNMAARWAAQMPSPRAAFLTLDTEQLATGGTGSAVPDPSKSLSSEKREVLTKANPVSSASDSDSSCSDIPTPTDPKLAAREIRLYYPKPRALLQRRNTICGCEYLSLKNSDLVVPSWHERKPGIGSPTNCDPGSPSIRDKSISFGYGLEMAARPTTCIGIAGDTSTDKARRMFHEARKLKQLTEDSQREFLVDRYKPGVSKVVRFDAKEDYVMKNEKFICNVENTILETFEPIPFADEGDEDA [chain 2 M196E], the ratio to parent was determined as 0.23.
